B1: HDV Ribozyme (parent)
chain: GGCCGGCAUGGUCCCAGCCUCCUCGCUGGCGCCGGCUGGGCAACAUUCCGAGGGGACCGUCCCCUCGGUAAUGGCGAAUGGGACCCA

Here are results for 167 variants from the RNAGym collection of RNA variant scans (doi:10.7554/elife.80360).

Variants of B1 are the subject of this series. Put plainly: self-cleavage, relative activity (ratio to wild type); higher = more cleavage; co-transcriptional.
Turning to G10U C41A, the self-cleavage worked out at 0.892.
For the variant U9G G17C, the self-cleavage came out at 0.166.
The value for C26A A71C was 1.07.
To U20A A56C belongs 0.0519.
As for G34U C57A, the self-cleavage stood at 0.114.
To U9A C86A belongs 0.554.
In the case of G35U G80U, the self-cleavage came to 0.223.
To C33G C41U belongs 0.119; to G10U A83C, 0.181.
The value for U69G G82C was 0.429; that for G2A G74C was 0.0811.
To G25C C44G belongs 0.101; to U20A C33U, 0.
As for C30A G50A, the self-cleavage stood at 0.641.
The value for U60G G80U was 0.277; that for G11C C62G was 0.214; that for A8C G82C was 0.0923.
Take G25U G76A: the self-cleavage is 0.
With U65G A87C, the self-cleavage is 0.859.
In the case of C63A G73U, the self-cleavage is 0.3.
In the case of C49G C58A, the self-cleavage was 0.764.
Regarding C22U U60G, the self-cleavage stood at 0.944.
To U47A G81C belongs 0.161; to C7A A51U, 0.538; to C7U U69A, 0.718.
In the case of C49G C84U, the self-cleavage amounted to 0.429.
As to G1A C58G, the self-cleavage turned out to be 0.0665.
The value for C48A G80A was 0.293; that for G2U A51C was 0.0528.
To G28C C49G belongs 0.119.
Regarding G28A G38C, the self-cleavage came out at 0.0978.
Regarding C62A A83C, the self-cleavage came out at 0.315.
To G17C C86A belongs 0.365; to G11U A45U, 0.217.
The value for G67C U69C was 1; that for G55C C85U was 0.923.
The value for G35C C62G was 0.0594.
Turning to U9C C64A, the self-cleavage came to 0.831.
To C19A A42G belongs 0.0811; to G40A A71G, 0.748.
The value for C22A C26U was 0.578.
To G1U C85G belongs 0.383.
On to C26G U72G, for which the self-cleavage amounted to 0.755.
To C18A C21A belongs 0.125.
As to C36G C86U, the self-cleavage came out at 0.0437.
The value for G28A G31A was 0.101.
Consider G2C C21G, for which the self-cleavage is 0.0396.
As to U60A C86A, the self-cleavage is 0.577.
On to U12A A51G, for which the self-cleavage amounted to 0.196.
To G11C C49U belongs 0.332; to G2C A51U, 0.0468; to G31A G50C, 0.521.
The value for C21U U72C was 0.284.
With U12A, the self-cleavage turned out to be 0.309.
With G11U C21U, the self-cleavage amounted to 0.0923.
To U23G G29U belongs 0; to G2A G76U, 0.332; to A78U G82U, 0.197.
To C7A C19A belongs 0.0277.
The value for U37G G67A was 0.0692.
As for C4U G39C, the self-cleavage is 0.0536.
The value for G40A C84A was 0.917.
Consider C4U U79C, for which the self-cleavage amounted to 0.136.
The value for U47G G52C was 0.895; that for U37C G82C was 0.268; that for A43U G55C was 0.399.
In the case of A42U A71U, the self-cleavage is 0.369.
The value for A56U C61G was 0.997; that for C18G U72A was 0; that for U23G C36G was 0.252.
The value for G17A G55U was 0.762; that for C24A A43C was 0.0415.
As to G17A G39C, the self-cleavage is 0.
The value for C26G U37G was 0.111.
Take U9G G40U: the self-cleavage amounted to 1.06.
To U20C G82C belongs 0.0639; to A42C A51U, 0.369.
On to C44G C58U, for which the self-cleavage was found to be 0.751.
The value for C62G U65C was 0.427; that for G2U G39C was 0.0125; that for U9C G67U was 1.12.
On to U23A G55U, for which the self-cleavage amounted to 0.976.
Consider U9G C13G, for which the self-cleavage stood at 0.111.
Regarding G34C U47A, the self-cleavage came to 0.161.
For the variant U27G A51C, the self-cleavage worked out at 0.906.
To C49A C75A belongs 0.156; to A45C U69A, 0.987.
C24U G68A: the self-cleavage worked out at 0.831.
The value for G34U G74U was 0.133; that for G1C A56C was 0.172.
The value for C19G U47G was 0; that for G11U G25U was 0.0623; that for U37A C84U was 0.116.
Regarding G34C G67A, the self-cleavage turned out to be 0.211.
Take G25A A45C: the self-cleavage was found to be 0.227.
In the case of C7A C24G, the self-cleavage amounted to 0.0415.
Regarding A8U A70U, the self-cleavage turned out to be 0.772.
For C30G C63G, the self-cleavage turned out to be 0.0923.
The value for C19G G34C was 0.0978.
Regarding U20G U65C, the self-cleavage turned out to be 0.222.
Regarding G1U G34A, the self-cleavage turned out to be 0.298.
The value for G55C G73U was 0.277; that for G25U A71G was 0.101; that for U37G C61G was 0.
To G17U C41A belongs 0.104.
To A45C A83G belongs 0.23; to G38U C48G, 0.156; to C32G C63U, 0.112.
On to U20C A71C, for which the self-cleavage was 0.0692.
To G5A U60A belongs 0.125; to C32U G35U, 0.376; to G29C G35U, 0.0554.
For the variant C24G G80A, the self-cleavage is 0.0791.
Consider A42U U60G, for which the self-cleavage turned out to be 0.615.
The value for G59U C84A was 0.863.
The value for U9G C86G was 1.33; that for U9G C86U was 1.42; that for C62G A70U was 0.665.
With C3G G55C, the self-cleavage is 0.682.
For G6U C7A, the self-cleavage was determined as 0.227.
In the case of A42U C64G, the self-cleavage worked out at 0.574.
To U23A U60C belongs 1.16.
Take A43G U65A: the self-cleavage was determined as 0.554.
To U27G G29A belongs 0.283; to U23C A45U, 0.675.
The value for A43C G55C was 0.312; that for U9A G39U was 0.917; that for C66A was 0.975.
Turning to C22G U65C, the self-cleavage came to 0.0997.
The value for C7A G50U was 0.475.
To G2A U23A belongs 0.219.
As for U27G A71G, the self-cleavage worked out at 0.875.
To G5U U60C belongs 0.604; to C22U A43U, 0.0831; to G38A A83G, 0.142.
Consider C36U A70U, for which the self-cleavage came out at 0.702.
The value for A45C C62G was 0.391; that for G10A A77C was 0.237; that for U60C C84A was 0.698.
To A8G G39C belongs 0.142; to C21U C85G, 0.358; to G11C U79C, 0.121.
The value for A16G C75A was 0.122; that for C44U U46A was 0.767; that for G11A A70G was 0.365.
Take G40U A78G: the self-cleavage came out at 0.199.
To C14U A77G belongs 1.31.
To C33A G67C belongs 0.277; to C3G A8U, 0.376; to G31A A43U, 0.128.
Turning to U9G C57U, the self-cleavage was 1.03.
G34U G73U: the self-cleavage amounted to 0.0455.
For the variant U65G A70U, the self-cleavage was determined as 0.892.
G6C G11C: the self-cleavage is 0.138.
For C7G U65C, the self-cleavage amounted to 0.0831.
The value for U9C U72A was 0.587; that for G50A G67C was 0.869; that for C4A C85G was 0.393.
On to G6C G55U, for which the self-cleavage was 0.177.
C24U A51U: the self-cleavage came out at 0.681.
To A42G A78C belongs 0.107.
Take C84U C86A: the self-cleavage amounted to 0.767.
As to U9C C44G, the self-cleavage is 0.63.
To U72C A78G belongs 0.237.
As for C24U U60C, the self-cleavage amounted to 0.752.
As for A43U C61U, the self-cleavage stood at 0.302.
Consider C14U G67C, for which the self-cleavage came to 0.929.
